Reference: US20080274950A1 (BABRAHAM INSTITUTE, published 2008)

Key:
[1] = target: the molecule itself; assay: bead aggregation assay, 1.25 mM CaCl2
Method: Dynabeads (Dynal Biotech) coupled to Protein A were coated with N-cadherin Fc at 1 μg/ml in calcium and magnesium-free HBSS containing 0.1% Tween 20, 1% FCS and 4 mM EDTA. Eppendorf tubes containing beads and fusion protein were rotated slowly for 1 hour at room temperature to allow binding to take place. The beads were then washed in the above assay buffer lacking EDTA and then resuspended in the same buffer supplemented with 1.25 mM CaCl₂. Beads were allowed to aggregate in a volume of 100 μl for 2 hours at 37° C. by slow rotation, in an eppendorf tube, at approximately 20 rpm. Aggregation was then assessed by light microscopy.
In the experiments described so far in this example, disruption of the salt bridge prevented intramolecular docking of Trp 2 in one or both components of the dimer. In an alternative strategy to prevent intramolecular docking, we removed Trp2 by introducing the mutation W2G or blocked the hydrophobic acceptor pocket with an isoleucine side chain projecting into the cavity using the mutation A801. N-cadherin Fc fusion proteins with these mutations were then tested against our panel of K562 transfectants (FIG. 17a). In keeping with the explanation given in FIG. 5, the W2G mutant acted as a strand acceptor and therefore adhered strongly to the E89A mutant whereas the A80I mutant was a strand donor and adhered to the GG extension mutant. […] In contrast, beads coated with the W2G or A801 mutants and tested separately clustered in twos and threes, whereas beads coated with the negative control mutant, D134A, were entirely monodisperse. To test whether all five extracellular domains of N-cadherin (EC1-EC5) are necessary for the strong adhesive interaction between the complementary mutants, we compared the adhesive activity of the W2G mutant prepared as a full length (EC1-EC5) Fc fusion protein with that of the same mutant prepared as a truncated construct containing only cadherin domains EC1 and EC2.

[2] = target: T1, mouse N-cadherin with an uncleaved prodomain expressed on L cells (furin site RQKR replaced with Factor Xa … (mouse, UniProt P15116 160-906)); assay: adhesion of L cell transfectants to coated N-cadherin Fc
T1 construct: whole, on cells; Prodomain is still attached in the assay; also called unprocessed N-cadherin; L cell transfectants expressing unprocessed N-cadherin
T1 sequence (looked up): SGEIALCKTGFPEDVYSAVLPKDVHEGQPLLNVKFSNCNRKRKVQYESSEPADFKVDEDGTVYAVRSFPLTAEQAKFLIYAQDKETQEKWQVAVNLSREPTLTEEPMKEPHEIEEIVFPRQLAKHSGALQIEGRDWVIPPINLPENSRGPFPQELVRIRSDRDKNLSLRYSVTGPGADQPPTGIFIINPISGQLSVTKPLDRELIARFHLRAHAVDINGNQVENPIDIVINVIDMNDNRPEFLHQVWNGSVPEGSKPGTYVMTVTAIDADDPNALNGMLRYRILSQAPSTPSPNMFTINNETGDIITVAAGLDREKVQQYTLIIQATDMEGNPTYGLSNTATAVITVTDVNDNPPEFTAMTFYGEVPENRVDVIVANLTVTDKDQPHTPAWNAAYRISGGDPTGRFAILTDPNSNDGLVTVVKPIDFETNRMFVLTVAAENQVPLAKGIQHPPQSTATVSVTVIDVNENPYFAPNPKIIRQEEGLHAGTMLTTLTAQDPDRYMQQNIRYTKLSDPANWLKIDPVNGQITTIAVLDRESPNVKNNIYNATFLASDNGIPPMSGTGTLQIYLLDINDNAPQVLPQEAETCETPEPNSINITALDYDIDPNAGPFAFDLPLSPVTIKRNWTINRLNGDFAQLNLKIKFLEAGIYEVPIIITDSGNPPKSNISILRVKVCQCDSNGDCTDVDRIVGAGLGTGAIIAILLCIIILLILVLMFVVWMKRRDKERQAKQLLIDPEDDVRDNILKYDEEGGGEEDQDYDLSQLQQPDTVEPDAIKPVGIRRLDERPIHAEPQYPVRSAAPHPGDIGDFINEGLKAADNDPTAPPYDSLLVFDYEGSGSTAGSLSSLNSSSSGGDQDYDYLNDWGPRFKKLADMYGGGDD
Method: Adhesion tests were conducted substantially as described in Example 1. Briefly, K562 Cells or L cells transfected with wild type or mutant N-cadherin were allowed to settle for 45 minutes at 37° C. onto N-cadherin Fc fusion proteins coated at 1 μg/ml to a 96 well plate. Non-adherent cells were then washed off and residual adherent cells were quantitated by measuring acid phosphatase activity. Assays were conducted in quadruplicate and results are expressed as % cells adhering +/−SEM.
L cells expressing mouse N-cadherin with an uncleaved prodomain (see Koch et al., 2004) were obtained from Dr Weisong Shan (Montreal Neurological Institute). The normal furin cleavage site, RQKR, had been replaced with a Factor Xa site, IEGR, to give the correct N-terminus after digestion. […] L cells suspended in HBSS containing 0.1% BSA were treated with 0.01% trypsin (Sigma, Type XI) in the presence of 2 mM Ca²⁺ for 10 minutes at 37° C. and the digestion was then quenched with soyabean trypsin inhibitor, 0.5 mg per ml (Sigma, Type I-S). Cells were then washed and tested for adhesion to N-cadherin Fc-fusion protein. To check for complete removal of the prodomain, the cells were lysed in SDS sample buffer and the cadherin analysed by SDS PAGE under reducing conditions on a 4-12% gradient gel. […]

B1: chicken N-cadherin-Fc fusion protein with the mutation D134A, dimeric (Fc fusion, UniProt P10288 165-728, looked up)
chain: DWVIPPINLPENSRGPFPQELVRIRSDRDKSLSLRYSVTGPGADQPPTGIFIINPISGQLSVTKPLDREQIASFHLRAHAVDVNGNQVENPIDIVINVIDMNDNRPEFLHQVWNGTVPEGSKPGTYVMTVTAIAADDPNAQNGMLRYRILSQAPSSPSPNMFTINNETGDIITVAAGLDREKVQQYTLIIQATDMEGNPTYGLSNTATAVITVTDVNDNPPEFTAMTFYGEVPENRVDVIVANLTVTDKDQPHTPAWNARYQMTGGDPTGQFTILTDPNSNDGLVTVVKPIDFETNRMFVLTVAAENQVPLAKGIQHPPQSTATVSITVIDVNESPYFVPNPKLVRQEEGLLAGSMLTTFTARDPDRYMQQTSLRYSKLSDPANWLKIDPVNGQITTTAVLDRESIYVQNNMYNATFLASDNGIPPMSGTGTLQIYLLDINDNAPQVNPKEATTCETLQPNAINITAVDPDIDPNAGPFAFELPDSPPSIKRNWTIVRISGDHAQLSLRIRFLEAGIYDVPIVITDSGNPHASSTSVLKVKVCQCDINGDCTDVDRIVGAGLGT
notes: extracellular domain; also called D134A mutant; N-cadherin Fc mutant D134A; not shown: hinge region, CH2 and CH3 domains of human IgG1 heavy chain (vector pIgSig)
binding result [1]: no binding (tested: beads coated at 1 µg/ml) | binding result [2]: no binding (tested: Fc fusion protein coated at 1 µg/ml)

B2: wild type chicken N-cadherin-Fc fusion protein, dimeric (linked by disulphide bonds at the Ig hinge region) (Fc fusion, UniProt P10288 165-729, looked up)
chain: DWVIPPINLPENSRGPFPQELVRIRSDRDKSLSLRYSVTGPGADQPPTGIFIINPISGQLSVTKPLDREQIASFHLRAHAVDVNGNQVENPIDIVINVIDMNDNRPEFLHQVWNGTVPEGSKPGTYVMTVTAIDADDPNAQNGMLRYRILSQAPSSPSPNMFTINNETGDIITVAAGLDREKVQQYTLIIQATDMEGNPTYGLSNTATAVITVTDVNDNPPEFTAMTFYGEVPENRVDVIVANLTVTDKDQPHTPAWNARYQMTGGDPTGQFTILTDPNSNDGLVTVVKPIDFETNRMFVLTVAAENQVPLAKGIQHPPQSTATVSITVIDVNESPYFVPNPKLVRQEEGLLAGSMLTTFTARDPDRYMQQTSLRYSKLSDPANWLKIDPVNGQITTTAVLDRESIYVQNNMYNATFLASDNGIPPMSGTGTLQIYLLDINDNAPQVNPKEATTCETLQPNAINITAVDPDIDPNAGPFAFELPDSPPSIKRNWTIVRISGDHAQLSLRIRFLEAGIYDVPIVITDSGNPHASSTSVLKVKVCQCDINGDCTDVDRIVGAGLGTG
notes: extracellular domain; also called dimeric N-cadherin-Fc; wild type N-cadherin; not shown: hinge region, CH2 and CH3 domains of human IgG1 heavy chain (vector pIgSig)
binding result [1]: binds | binding result [2]: no binding (tested: Fc fusion protein coated at 1 µg/ml)
